Results as given in patent US20160108117A1 (UNIVERSITE DE NICE SOPHIA ANTIPOLIS, published 2016).

T1: human chemokine CXCL1 (human, UniProt P09341 35-107)
T1 construct: also called growth-regulated oncogene alpha; GRO-alpha
T1 sequence (looked up): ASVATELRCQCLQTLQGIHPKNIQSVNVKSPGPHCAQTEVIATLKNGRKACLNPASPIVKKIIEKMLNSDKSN

T2: human chemokine CXCL7 (human, UniProt P02775 59-128)
T2 construct: also called NAP2; NAP-2
T2 sequence (looked up): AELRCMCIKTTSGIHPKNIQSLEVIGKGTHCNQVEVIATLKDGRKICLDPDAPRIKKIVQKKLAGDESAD

T3: CXCL3 (human (presumed; the text does not …, UniProt P19876)
T3 construct: also called cytokine CXCL3; Gro-gamma
T3 sequence (chemokine, looked up): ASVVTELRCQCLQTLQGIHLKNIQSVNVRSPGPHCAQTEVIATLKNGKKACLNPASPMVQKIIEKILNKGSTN

T4: human chemokine CXCL8 (human, UniProt P10145 28-99, limits assumed)
T4 construct: also called IL8; IL-8
T4 sequence (looked up): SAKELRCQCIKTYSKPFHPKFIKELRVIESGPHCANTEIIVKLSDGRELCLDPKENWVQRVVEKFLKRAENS

T5: peptide specific for human CXCL7 of sequence SDLYAELRCMCIKTTSGIHPKNIQS (SEQ ID NO: 20) coupled to keyhole … (human, coupled to keyhole limpet hemocyanine)
T5 construct: Immunisation peptide, used in the ELISA screen as a KLH conjugate; also called pCXCL7
T5 peptide: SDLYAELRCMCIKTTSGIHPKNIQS

B1: monoclonal rat IgG antibody produced by the hybridoma 12A10-13 (CNCM I-4617) (antibody, V domains shown)
VH: QVQLQQSGAELAKPGSSVKISCKASGYTFTSYYISWIKQTTGQGLEYIGYINTGSGGTNYNEKFKGKATLTVDKSSSTAFMQLSSLTPDDSAVYYCASPSGGFDYWGQGVMVTVSS
VL: EIVLTQSPTTMAASPGEKVTITCRASSSVSYMHWYQQKPGASPKPWIYDTSKLASGVPNRFSGSGSGTSYSLTISSMETEDTATYYCQQWSSNSLTFGSGTKLEIK
notes: also called Mc12A10-13
B2: monoclonal rat IgG antibody produced by the hybridoma 35B11-8 (CNCM I-4618) (antibody, V domains shown)
VH: EVQLVESGGGLVQPGRSLKLSCVASGFTFNNYWMTWIRQAPGKGLEWVASISKTGSNPYYPDSVKGRFTISRDNAKNTLYLQMNSLRSEDTATYYCARDGTTPLDYWGQGVMVTVSS
VL: DIQMTQSPPSLSASLGDKVTITCQASQNINKYIAWYQQKPGKAPGLLIHYTSTLVSGIPSRFSGSGSGRVYSFSISNVESEDIASYYCLQYDNSPFPFGAGTKLELK
notes: also called Mc35B11-8

Tests used:
human chemokine CXCL1 [1] = target: T1, human chemokine CXCL1; experiment: SPR (Biacore 3000), antibody captured on a CM5 chip, cytokine as analyte, 25 C; head 'x M10Exp8' applied as printed, but this does not agree with 1/Kd of the same pair (about 6.4e7)
From the text: (§1) With the BIAcore® 3000, 4 canals (Flow cell) are designed on the CM5 sensor surface. The polyclonal rabbit anti mouse IgG antibodies are covalently coupled on the 2nd, 3rd and 4th flow cells (FC), leaving the first FC (FC1) blank for reference subtraction. The first FC (FC1) is only activated (EDC/NHS) and deactivated (ethanolamine hydrochloride NaOH), without injection of capture antibody.
(§2) First the ligand (interest antibody) is captured by the immobilised antibodies. Diluted antibodies Mc12A10-13 (5 μg/mL), Mc35B11-8 (8 μg/mL), McCXCL1 (2 μg/mL), McCXCL7 (1 μg/mL), McCXCL8 (3 μg/mL), McPan CXCL1-2-3 (5 μg/mL) are captured by the polyclonal rabbit anti mouse IgG antibodies immobilized on the CM5 sensor chip with a 3 minutes injection at a flow rate of 5 μL/min. The complex “capture antibody—ligand” is stabilized during 10 minutes before the injection of the analyte (cytokines). This capture is a non-covalent interaction.
(§3) Then a range of cytokine concentration is injected (analyte) over the captured antibody (ligand). Cytokines CXCL1, CXCL3, NAP2, IL8 are injected over the captured ligand for a range of concentration from 0 to 10 μg/mL, at a flow rate of […]. The complex “ligand/analyte” is formed. The association and the dissociation phases are monitored over about 3 minutes and 2.5 minutes respectively. The signal induced is measured in RU (Resonance Unit).

human chemokine CXCL7 [2] = target: T2, human chemokine CXCL7; experiment: SPR (Biacore 3000), antibody captured on a CM5 chip, cytokine as analyte, 25 C; head 'x M10Exp8' applied, agrees with 1/Kd
From the text: as §1, §2, §3

human chemokine CXCL1 [3] = target: T1, human chemokine CXCL1; experiment: SPR (Biacore 3000), antibody captured on a CM5 chip, cytokine injected as analyte, 25 C
From the text: as §1, §2, §3

CXCL3 [4] = target: T3, CXCL3; experiment: as above
From the text: as §1, §2, §3

human chemokine CXCL8 [5] = target: T4, human chemokine CXCL8; experiment: as above
From the text: as §1, §2, §3

human chemokine CXCL7 [6] = target: T2, human chemokine CXCL7; experiment: as above
From the text: as §1, §2, §3

[7] = target: T5, peptide specific for human CXCL7 of …; experiment: ELISA screen on KLH-coupled peptide
human chemokine CXCL8 [8] = target: T4, human chemokine CXCL8; experiment: SPR (Biacore 3000), antibody captured on a CM5 chip, cytokine as analyte, 25 C; head 'x M10Exp8' applied as printed, but this does not agree with 1/Kd of the same pair (about 2.26e7)
From the text: as §1, §2, §3

CXCL3 [9] = target: T3, CXCL3; experiment: SPR (Biacore 3000), antibody captured on a CM5 chip, cytokine as analyte, 25 C; head 'x M10Exp8' applied as printed, but this does not agree with 1/Kd of the same pair (about 1.55e7)
From the text: as §1, §2, §3

human chemokine CXCL8 [10] = target: T4, human chemokine CXCL8; experiment: SPR (Biacore 3000), antibody captured on a CM5 chip, cytokine as analyte, 25 C; head 'x M10Exp8' applied as printed, but this does not agree with 1/Kd of the same pair (about 5.03e7)
From the text: as §1, §2, §3

human chemokine CXCL1 [11] = target: T1, human chemokine CXCL1; experiment: SPR (Biacore 3000), antibody captured on a CM5 chip, cytokine as analyte, 25 C; head 'x M10Exp8' applied as printed, but this does not agree with 1/Kd of the same pair (about 8.47e7)
From the text: as §1, §2, §3

Row | Binder | Ka (human chemokine CXCL1 [1]) [M⁻¹] | Ka (human chemokine CXCL7 [2]) [M⁻¹] | Kd (human chemokine CXCL1 [3]) [nM] | Kd (CXCL3 [4]) [nM] | Kd (human chemokine CXCL8 [5]) [nM] | Kd (human chemokine CXCL7 [6]) [nM] | binding result [7] | Ka (human chemokine CXCL8 [8]) [M⁻¹] | Ka (CXCL3 [9]) [M⁻¹] | Ka (human chemokine CXCL8 [10]) [M⁻¹] | Ka (human chemokine CXCL1 [11]) [M⁻¹]
1 | B1 | 6.4e+07 | 3.03e+08 | 15.6 | 64.5 | 44.3 | 3.3 | binds | 2.26e+07 | 1.55e+07 | – | –
2 | B2 | – | 2.01e+08 | 11.8 | 247 | 19.9 | 4.99 | binds | – | – | 5.03e+07 | 8.5e+07
